Measurements published in article PMC8761697, “Dehydrogenase reductase 9 (SDR9C4) and related homologs recognize a broad spectrum of lipid mediator oxylipins as substrates” (The Journal of Biological Chemistry, 2021).

What was measured:
Experiment in all cases: HPLC of oxidised product, Sf9 microsomes
Type in all cases: biochemical, Homo sapiens
Conditions in all cases: apparent Km, NAD+-dependent oxidation, 90 mM potassium phosphate pH 7.3, 40 mM KCl, 37 °C
[1] = substrate: CCCCC/C=C\C=C\[C@@H](O)CCCCCCCC(=O)O
Text: (§1) HPLC of oxidised product, Sf9 microsomes on human HSD17B6 (SDR9C6)

[2] = substrate: CCCCC/C=C\C[C@H](O)/C=C/C=C\C/C=C\CCCC(=O)O
Text: as §1

[3] = substrate: CCCCC[C@H](O)/C=C/C=C\C/C=C\C/C=C\CCCC(=O)O
Text: as §1

[4] = substrate: CCCCC[C@H](O)/C=C/C=C\CCCCCCCC(=O)O
Text: as §1

[5] = substrate: CC/C=C\C[C@H](O)/C=C/C=C\C=C\C=C\[C@@H](O)[C@@H](O)C/C=C\CCC(=O)O
Text: (§2) HPLC of oxidised product, Sf9 microsomes on human DHRS9 (SDR9C4)

[6] = substrate: CCCCC/C=C\C=C\[C@@H](O)CCCCCCCC(=O)O; remark: listed apart in the source
Text: as §2

[7] = substrate: CCCCC/C=C\C[C@@H](O)/C=C/C=C/C=C\[C@@H](O)CCCC(=O)O
Text: as §2

[8] = substrate: CCCCC/C=C\C[C@H](O)/C=C/C=C\C/C=C\CCCC(=O)O; remark: listed apart in the source
Text: as §2

[9] = substrate: CCCCC[C@H](O)/C=C/C=C\C/C=C\C/C=C\CCCC(=O)O; remark: listed apart in the source
Text: as §2

[10] = substrate: CCCCC[C@H](O)/C=C/C=C\C=C\C=C\[C@@H](O)[C@@H](O)CCCC(=O)O
Text: as §2

[11] = substrate: CCCCC[C@H](O)/C=C/C=C\CCCCCCCC(=O)O; remark: listed apart in the source
Text: as §2

[12] = substrate: CCCCC/C=C\C=C\[C@@H](O)CCCCCCCC(=O)O; remark: listed apart in the source
Text: (§3) HPLC of oxidised product, Sf9 microsomes on human RDH16 (SDR9C8)

[13] = substrate: CCCCC/C=C\C[C@H](O)/C=C/C=C\C/C=C\CCCC(=O)O; remark: listed apart in the source
Text: as §3

[14] = substrate: CCCCC[C@H](O)/C=C/C=C\C/C=C\C/C=C\CCCC(=O)O; remark: listed apart in the source
Text: as §3

[15] = substrate: CCCCC[C@H](O)/C=C/C=C\CCCCCCCC(=O)O; remark: listed apart in the source
Text: as §3

B1: human HSD17B6 (SDR9C6) (Homo sapiens) (protein)
chain: YRERQVVSHLQDKYVFITGCDSGFGNLLARQLDARGLRVLAACLTEKGAEQLRGQTSDRLETVTLDVTKMESIAAATQWVKEHVGDRGLWGLVNNAGILTPITLCEWLNTEDSMNMLKVNLIGVIQVTLSMLPLVRRARGRIVNVSSILGRVAFFVGGYCVSKYGVEAFSDILRREIQHFGVKISIVEPGYFRTGMTNMTQSLERMKQSWKEAPKHIKETYGQQYFDALYNIMKEGLLNCSTNLNLVTDCMEHALTSVHPRTRYSAGWDAKFFFIPLSYLPTSLADYILTRSWPKPAQAV
notes: recombinant, baculovirus-infected Sf9 cell microsomes
- Km [1]: 0.64 ± 0.28 µM
- Vmax [1]: 4e-07 µmol/min
- Km [2]: 0.87 ± 0.35 µM
- Vmax [2]: 7.96e-06 µmol/min
- Km [3]: 1.78 ± 0.42 µM
- Vmax [3]: 2.88e-06 µmol/min
- Km [4]: 0.33 ± 0.24 µM
- Vmax [4]: 9e-07 µmol/min

B2: human DHRS9 (SDR9C4) (Homo sapiens) (protein)
chain: RKGKLKIEDITDKYIFITGCDSGFGNLAARTFDKKGFHVIAACLTESGSTALKAETSERLRTVLLDVTDPENVKRTAQWVKNQVGEKGLWGLINNAGVPGVLAPTDWLTLEDYREPIEVNLFGLISVTLNMLPLVKKAQGRVINVSSVGGRLAIVGGGYTPSKYAVEGFNDSLRRDMKAFGVHVSCIEPGLFKTNLADPVKVIEKKLAIWEQLSPDIKQQYGEGYIEKSLDKLKGNKSYVNMDLSPVVECMDHALTSLFPKTHYAAGKDAKIFWIPLSHMPAALQDFLLLKQKAELANPKAV
notes: as for B1
- Km [5]: 1.6 ± 0.5 µM
- Vmax [5]: 8.5e-05 µmol/min
- Km [6]: 0.57 ± 0.25 µM
- Vmax [6]: 2.4e-05 µmol/min
- Km [7]: 0.76 ± 0.44 µM
- Vmax [7]: 0.00017 µmol/min
- Km [8]: 0.43 ± 0.16 µM
- Vmax [8]: 0.00022 µmol/min
- Km [9]: 0.36 ± 0.18 µM
- Vmax [9]: 0.00014 µmol/min
- Km [10]: 4.6 ± 2.7 µM
- Vmax [10]: 0.00023 µmol/min
- Km [11]: 0.46 ± 0.19 µM
- Vmax [11]: 0.00011 µmol/min

B3: human RDH16 (SDR9C8) (Homo sapiens) (protein)
chain: MWLYLAVFVGLYYLLHWYRERQVLSHLRDKYVFITGCDSGFGKLLARQLDARGLRVLAACLTEKGAEQLRGQTSDRLETVTLDVTKTESVAAAAQWVKECVRDKGLWGLVNNAGISLPTAPNELLTKQDFVTILDVNLLGVIDVTLSLLPLVRRARGRVVNVSSVMGRVSLFGGGYCISKYGVEAFSDSLRRELSYFGVKVAMIEPGYFKTAVTSKERFLKSFLEIWDRSSPEVKEAYGEKFVADYKKSAEQMEQKCTQDLSLVTNCMEHALIACHPRTRYSAGWDAKLLYLPMSYMPTFLVDAIMYWVSPSPAKAL
notes: as for B1
- Km [12]: 1.76 ± 0.59 µM
- Vmax [12]: 1.67e-05 µmol/min
- Km [13]: 2.01 ± 0.64 µM
- Vmax [13]: 2.15e-06 µmol/min
- Km [14]: 1.39 ± 0.56 µM
- Vmax [14]: 2.04e-05 µmol/min
- Km [15]: 0.83 ± 0.36 µM
- Vmax [15]: 7.7e-06 µmol/min
